From patent publication US20120165267A1

Experiments:
[1] = target: DR4-selective phage clone 13 (human) (UniProt P50591); test: competition phage ELISA: phage clone Apo.DR4-13 at a fixed concentration on wells coated with DR4-IgG, competed by rising soluble DR4-IgG (axis in nM), bound phage detected with anti-M13 antibody-HRP, A450; IC50 from a 4-parameter fit, fourth value in the IC50 box beside the legend
[2] = target: DR4-selective phage clone 8 (human) (UniProt P50591); test: competition phage ELISA: phage clone Apo.DR4-8 at a fixed concentration on wells coated with DR4-IgG, competed by rising soluble DR4-IgG (axis in nM), bound phage detected with anti-M13 antibody-HRP, A450; IC50 from a 4-parameter fit, first value in the IC50 box beside the legend
[3] = target: DR4-selective phage clone 11 (human) (UniProt P50591); test: competition phage ELISA: phage clone Apo.DR4-11 at a fixed concentration on wells coated with DR4-IgG, competed by rising soluble DR4-IgG (axis in nM), bound phage detected with anti-M13 antibody-HRP, A450; IC50 from a 4-parameter fit, third value in the IC50 box beside the legend
[4] = target: wild-type (native sequence) Apo2L/TRAIL(96-281) displayed on phage (human) (UniProt P50591); test: competition phage ELISA: wild-type Apo2L/TRAIL phage (ApoWT) at a fixed concentration on wells coated with DR4-IgG, competed by rising soluble DR4-IgG (axis in nM), bound phage detected with anti-M13 antibody-HRP, A450; IC50 from a 4-parameter fit, fifth value in the IC50 box beside the legend
[5] = target: DR4-selective phage clone 9 (human) (UniProt P50591); test: competition phage ELISA: phage clone Apo.DR4-9 at a fixed concentration on wells coated with DR4-IgG, competed by rising soluble DR4-IgG (axis in nM), bound phage detected with anti-M13 antibody-HRP, A450; IC50 from a 4-parameter fit, second value in the IC50 box beside the legend

Sequence of DR4-IgG (O00220 24-241 H141R/R209T limits assumed): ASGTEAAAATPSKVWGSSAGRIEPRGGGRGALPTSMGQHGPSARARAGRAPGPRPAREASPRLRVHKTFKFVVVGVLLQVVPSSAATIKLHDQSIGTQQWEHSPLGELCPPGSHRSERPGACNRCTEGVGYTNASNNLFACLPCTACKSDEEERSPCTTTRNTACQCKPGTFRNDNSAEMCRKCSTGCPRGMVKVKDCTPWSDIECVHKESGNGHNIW

IC50 [1]: 6.7 nM
IC50 [2]: 1.3 nM
IC50 [3]: 4.2 nM
IC50 [4]: 2.8 nM
IC50 [5]: 1.1 nM
Substance: DR4-IgG (from UniProt O00220 24-241) (Fc fusion)
